Laboratory results from patent publication US12338277.

Assays:
Test in all cases: cell-based or functional assay
[1] = molecular target: HIV-1 Env of pseudovirus 231966.c02 (HIV-1)
[2] = molecular target: HIV-1 Env of pseudovirus 235-47 (HIV-1)
[3] = molecular target: HIV-1 Env of pseudovirus 3365.v2.c2 (HIV-1)
[4] = molecular target: HIV-1 Env of pseudovirus 3817.v2.c59 (HIV-1)
[5] = molecular target: HIV-1 Env of pseudovirus 6240_08_TA5_4622 (HIV-1)
[6] = molecular target: HIV-1 Env of pseudovirus 6535.3 (HIV-1)
[7] = molecular target: HIV-1 Env of pseudovirus 7030102001E5(Rev-) (HIV-1)
[8] = molecular target: HIV-1 Env of pseudovirus 89-F1_2_25 (HIV-1)
[9] = molecular target: HIV-1 Env of pseudovirus BJOX010000.06.2 (HIV-1)
[10] = molecular target: HIV-1 Env of pseudovirus BJOX025000.01.1 (HIV-1)
[11] = molecular target: HIV-1 Env of pseudovirus CAP45.2.00.G3 (HIV-1)
[12] = molecular target: HIV-1 Env of pseudovirus CNE30 (HIV-1)
[13] = molecular target: HIV-1 Env of pseudovirus CNE5 (HIV-1)
[14] = molecular target: HIV-1 Env of pseudovirus Ce1086_B2 (HIV-1)
[15] = molecular target: HIV-1 Env of pseudovirus Ce1172_H1 (HIV-1)
[16] = molecular target: HIV-1 Env of pseudovirus Ce704809221_1B3 (HIV-1)
[17] = molecular target: HIV-1 Env of pseudovirus Du172.17 (HIV-1)
[18] = molecular target: HIV-1 Env of pseudovirus Q842.d12 (HIV-1)
[19] = molecular target: HIV-1 Env of pseudovirus SC422661.8 (HIV-1)
[20] = molecular target: HIV-1 Env of pseudovirus T257-31 (HIV-1)
[21] = molecular target: HIV-1 Env of pseudovirus WITO4160.33 (HIV-1)
[22] = molecular target: HIV-1 Env of pseudovirus X2131_C1_85 (HIV-1)
[23] = molecular target: HIV-1 Env of pseudovirus ZM197M.PB7 (HIV-1)
[24] = molecular target: HIV-1 Env of pseudovirus ZM214M.PL15 (HIV-1)
[25] = molecular target: HIV-1 envelope of pseudovirus 1054_07_TC4_1499 (HIV-1)
[26] = molecular target: HIV-1 envelope of pseudovirus 231966.c02 (HIV-1)
[27] = molecular target: HIV-1 envelope of pseudovirus 246F C1G (HIV-1)
[28] = molecular target: HIV-1 envelope of pseudovirus 3415.v1.c1 (HIV-1)
[29] = molecular target: HIV-1 envelope of pseudovirus 3817.v2.c59 (HIV-1)
[30] = molecular target: HIV-1 envelope of pseudovirus 62357_14_03_4589 (HIV-1)
[31] = molecular target: HIV-1 envelope of pseudovirus 6240_08_TA5_4622 (HIV-1)
[32] = molecular target: HIV-1 envelope of pseudovirus 7030102001E5(Rev-) (HIV-1)
[33] = molecular target: HIV-1 envelope of pseudovirus 9004SS_A3_4 (HIV-1)
[34] = molecular target: HIV-1 envelope of pseudovirus 928-28 (HIV-1)
[35] = molecular target: HIV-1 envelope of pseudovirus BF1266.431a (HIV-1)
[36] = molecular target: HIV-1 envelope of pseudovirus BJOX015000.11.5 (HIV-1)
[37] = molecular target: HIV-1 envelope of pseudovirus BJOX028000.10.3 (HIV-1)
[38] = molecular target: HIV-1 envelope of pseudovirus CAP210.2.00.E8 (HIV-1)
[39] = molecular target: HIV-1 envelope of pseudovirus CNE30 (HIV-1)
[40] = molecular target: HIV-1 envelope of pseudovirus Ce0682_E4 (HIV-1)
[41] = molecular target: HIV-1 envelope of pseudovirus Ce1086_B2 (HIV-1)
[42] = molecular target: HIV-1 envelope of pseudovirus Ce1172_H1 (HIV-1)
[43] = molecular target: HIV-1 envelope of pseudovirus HIV-001428-2.42 (HIV-1)
[44] = molecular target: HIV-1 envelope of pseudovirus HIV-16845-2.22 (HIV-1)
[45] = molecular target: HIV-1 envelope of pseudovirus Q451.e2 (HIV-1)
[46] = molecular target: HIV-1 envelope of pseudovirus Q769.d22 (HIV-1)
[47] = molecular target: HIV-1 envelope of pseudovirus T255-34 (HIV-1)
[48] = molecular target: HIV-1 envelope of pseudovirus WITO4160.33 (HIV-1)
[49] = molecular target: HIV-1 envelope of pseudovirus ZM214M.PL15 (HIV-1)
[50] = molecular target: HIV-1 envelope spike of pseudovirus SC422661.8 (HIV-1)

Question: With PGT121 (antibody) as the substance, how does the IC80 (TZM-bl neutralization) [1] read?
Answer: > 50 µg/mL

Question: And the IC80 (TZM-bl neutralization) [2]?
Answer: 1.68 µg/mL

Question: What about the IC80 (TZM-bl neutralization) [3] of the same substance?
Answer: 7.35 µg/mL

Question: What about the IC80 (TZM-bl neutralization) [4] of the same substance?
Answer: > 50 µg/mL

Question: What about the IC80 (TZM-bl neutralization) [5] of the same substance?
Answer: 0.584 µg/mL

Question: What about the IC80 (TZM-bl neutralization) [6] of the same substance?
Answer: 0.021 µg/mL

Question: What about the IC80 (TZM-bl neutralization) [7] of the same substance?
Answer: 0.043 µg/mL

Question: And the IC80 (TZM-bl neutralization) [8]?
Answer: > 50 µg/mL

Question: What about the IC80 (TZM-bl neutralization) [9] of the same substance?
Answer: > 50 µg/mL

Question: What about the IC80 (TZM-bl neutralization) [10] of the same substance?
Answer: > 50 µg/mL

Question: What about the IC80 (TZM-bl neutralization) [11] of the same substance?
Answer: 6.54 µg/mL

Question: And the IC80 (TZM-bl neutralization) [12]?
Answer: 0.559 µg/mL

Question: And the IC80 (TZM-bl neutralization) [13]?
Answer: > 50 µg/mL

Question: And the IC80 (TZM-bl neutralization) [14]?
Answer: 0.006 µg/mL

Question: And the IC80 (TZM-bl neutralization) [15]?
Answer: 0.088 µg/mL

Question: What about the IC80 (TZM-bl neutralization) [16] of the same substance?
Answer: 0.492 µg/mL

Question: What about the IC80 (TZM-bl neutralization) [17] of the same substance?
Answer: 0.89 µg/mL

Question: What about the IC80 (TZM-bl neutralization) [18] of the same substance?
Answer: 0.074 µg/mL

Question: And the IC80 (TZM-bl neutralization) [19]?
Answer: 0.46 µg/mL

Question: What about the IC80 (TZM-bl neutralization) [20] of the same substance?
Answer: > 50 µg/mL

Question: And the IC80 (TZM-bl neutralization) [21]?
Answer: 6.01 µg/mL

Question: What about the IC80 (TZM-bl neutralization) [22] of the same substance?
Answer: 0.058 µg/mL

Question: What about the IC80 (TZM-bl neutralization) [23] of the same substance?
Answer: > 50 µg/mL

Question: What about the IC80 (TZM-bl neutralization) [24] of the same substance?
Answer: 3.15 µg/mL

Question: What about the IC50 (TZM-bl neutralization) [25] of the same substance?
Answer: 0.115 µg/mL

Question: And the IC50 (TZM-bl neutralization) [26]?
Answer: > 50 µg/mL

Question: What about the IC50 (TZM-bl neutralization) [27] of the same substance?
Answer: 0.083 µg/mL

Question: And the IC50 (TZM-bl neutralization) [28]?
Answer: > 50 µg/mL

Question: What about the IC50 (TZM-bl neutralization) [29] of the same substance?
Answer: > 50 µg/mL

Question: And the IC50 (TZM-bl neutralization) [30]?
Answer: 1.04 µg/mL

Question: What about the IC50 (TZM-bl neutralization) [31] of the same substance?
Answer: 0.128 µg/mL

Question: And the IC50 (TZM-bl neutralization) [32]?
Answer: 0.01 µg/mL

Question: What about the IC50 (TZM-bl neutralization) [33] of the same substance?
Answer: 0.008 µg/mL

Question: What about the IC50 (TZM-bl neutralization) [34] of the same substance?
Answer: > 50 µg/mL

Question: What about the IC50 (TZM-bl neutralization) [35] of the same substance?
Answer: > 50 µg/mL

Question: And the IC50 (TZM-bl neutralization) [36]?
Answer: > 50 µg/mL

Question: What about the IC50 (TZM-bl neutralization) [37] of the same substance?
Answer: > 50 µg/mL

Question: What about the IC50 (TZM-bl neutralization) [38] of the same substance?
Answer: 5.08 µg/mL

Question: And the IC50 (TZM-bl neutralization) [39]?
Answer: 0.101 µg/mL

Question: What about the IC50 (TZM-bl neutralization) [40] of the same substance?
Answer: > 50 µg/mL

Question: And the IC50 (TZM-bl neutralization) [41]?
Answer: < 0.001 µg/mL

Question: And the IC50 (TZM-bl neutralization) [42]?
Answer: 0.023 µg/mL

Question: And the IC50 (TZM-bl neutralization) [43]?
Answer: 0.028 µg/mL

Question: And the IC50 (TZM-bl neutralization) [44]?
Answer: 12.7 µg/mL

Question: And the IC50 (TZM-bl neutralization) [45]?
Answer: > 50 µg/mL

Question: What about the IC50 (TZM-bl neutralization) [46] of the same substance?
Answer: > 50 µg/mL

Question: And the IC50 (TZM-bl neutralization) [47]?
Answer: 6.72 µg/mL

Question: And the IC50 (TZM-bl neutralization) [48]?
Answer: 0.459 µg/mL

Question: What about the IC50 (TZM-bl neutralization) [49] of the same substance?
Answer: 0.236 µg/mL

Question: And the IC50 (TZM-bl neutralization assay) [50]?
Answer: 0.263 µg/mL

Question: And the IC80 (TZM-bl neutralization assay) [50]?
Answer: 0.714 µg/mL
